Reference: patent US20030073218A1, “High affinity inhibitors for target validation and uses thereof” (Princeton University, priority 1999, published 2003)

Test system: T1, Nc1ncnc2c1ncn2[C@@H]1O[C@H](COP(=O)(O)OP(=O)(O)OP(=O)(O)O)[C@@H](O)[C@H]1O
T1 construct: made in house; host or cells: Sf9 insect cells, baculovirus, co-infected with Cak1-HA3 (Cdc28-His6); bacteria (MBP-Clb2)
Assay: purified protein, by the assay type
Type: biochemical, Saccharomyces cerevisiae
Conditions: other: Cdc28 · MBP-Clb2; pH 7.4; 23.0 °C

Sequence of Cdc28 · MBP-Clb2 (Saccharomyces cerevisiae S288C) (chain, as listed by the source S288C): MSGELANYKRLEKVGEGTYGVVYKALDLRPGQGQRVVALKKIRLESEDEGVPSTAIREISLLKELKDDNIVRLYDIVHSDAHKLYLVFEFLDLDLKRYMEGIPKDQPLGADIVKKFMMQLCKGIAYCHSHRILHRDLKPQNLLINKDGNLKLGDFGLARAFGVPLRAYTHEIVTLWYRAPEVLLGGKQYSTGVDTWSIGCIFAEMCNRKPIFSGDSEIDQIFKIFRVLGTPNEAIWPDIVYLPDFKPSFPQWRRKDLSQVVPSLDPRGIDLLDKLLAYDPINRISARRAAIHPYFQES

Work on “Cdc28 · MBP-Clb2 (Saccharomyces cerevisiae S288C)” yielded a Km of 35 µM, a kcat of 2.2 s⁻¹ and a kcat/Km of 62170 M⁻¹ s⁻¹.
